Test results published in paper PMC3365654 (The Febs Journal, 2012).
Changes are numbered by the printed parent chain.

B1: wildtype proline-rich (PR) domain of Gab1 (domain or fragment, human, UniProt Q13480 331-530, looked up)
chain: TSKLDTIPDIPPPRPPKPHPAHDRSPVETCSIPRTASDTDSSYCIPTAGMSPSRSNTISTVDLNKLRKDASSQDCYDIPRAFPSDRSSSLEGFHNHFKVKNVLTVGSVSSEELDENYVPMNPNSPPRQHSSSFTEPIQEANYVPMTPGTFDFSSFGMQVPPPAHMGFRSSPKTPPRRPVPVADCEPPPVDRNLKPDRKVK
B2: PR domain of Gab1 with the G1 motif mutated (domain or fragment, human, UniProt Q13480 331-530, looked up)
chain: B1 chain with R14A, K17A
B3: PR domain of Gab1 with the G2 motif mutated (domain or fragment, human, UniProt Q13480 331-530, looked up)
chain: B1 chain with R191A, K194A

Molecular target: wildtype full-length Grb2 (human, UniProt P62993 1-217)
Sequence (P62993 whole entry): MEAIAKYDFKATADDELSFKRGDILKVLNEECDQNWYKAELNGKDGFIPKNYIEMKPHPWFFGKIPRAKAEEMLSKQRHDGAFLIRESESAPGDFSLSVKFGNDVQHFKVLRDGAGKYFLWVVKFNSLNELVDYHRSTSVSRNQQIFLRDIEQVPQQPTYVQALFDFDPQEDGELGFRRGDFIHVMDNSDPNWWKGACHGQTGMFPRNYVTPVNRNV
Experiment: ITC

| Binder | Kd | dH | stoichiometry N |
| --- | --- | --- | --- |
| B1 | 7.21 µM | -34.5 kcal/mol | 1.94 |
| B2 | 2.24 µM | -23.4 kcal/mol | 1.07 |
| B3 | 20.3 µM | -13.2 kcal/mol | 1.02 |
